Patent US11261216B2, “Engineered hepatitis B core polypeptide” (priority 2018, dated 2022)

B1: HP spike transplant: HepBc with HP series of amino acid changes in the spike region; HBc(HP) is SEQ ID NO: 3 (protein)
chain: MDIDPYKEFGATVELLSFLPSDFFPSVRCLLDTAAALYRDALESPEHCSPHHTALRQAVSCWREVTDFGDWVGNNMQDQAARDLVVNYVNANIGLKIRQLLWFHISCLTFGRETVLEYLVSFGVWICTPPAYRPPNAPILSTLPETTVV

Assay: VLP assembly induced by NaCl, quantified by size-exclusion chromatography
Assay type: physicochemical
Description: Improved VLP purification method. HepBc proteins were expressed using standard cell-free protein synthesis reactions as described above. The improved purification strategy first used Sephadex G25 columns to exchange the samples into a 50 mM Tris, 25 mM Imidazole, 0.1% Tween-20, pH 7.4 buffer solution. Insolubles were removed using centrifugation at 10 k×g for 15 min before loading the soluble fraction onto the Ni-NTA column. After loading, the Ni-NTA column was washed with 4 column volumes (CV) of 50 mM Tris, 25 mM Imidazole, 0.1% Tween-20, pH 7.4 and then eluted with 50 mM Tris, 250 mM Imidazole, 0.1% Tween-20, pH 7.4 (5CV total). […] Assembled VLPs were quantified and purified by applying 200 μL of the samples to 2.2 mL Sepharose 6 Fast Flow size-exclusion chromatographic resin, eluting 24×150 μL fractions. Protein concentration in each fraction was determined by measuring the radioactivity using liquid scintillation counting. […]
VLP purification method. […] Assembled VLPs were quantified and purified by applying 200 μL of the samples to 2.2 mL Sepharose 6 Fast Flow size-exclusion column, applying the assembly buffer, and collecting 24×150 […]. Protein concentration in each fraction was determined by measuring the radioactivity using liquid scintillation counting. […]

Row | Molecule | NaCl concentration (ionic strength) required for VLP assembly [M]
1 | wild-type: Wild-type truncated Hepatitis B core protein HBc149, SEQ ID NO: 1 | 0.5
2 | B1 | 1.5
